These molecules were tested against wild-type human HSF1, expressed in hsf1-/- mouse embryonic fibroblasts (human) (UniProt Q00613) (assay: cross-linking; EGS cross-linking of extracts of transfected hsf1-/- MEFs, without stress and after heat stress; immunoblot for HSF1).

Molecule	stoichiometry N
wild-type human HSF1, expressed in hsf1-/- mouse embryonic fibroblasts (from UniProt Q00613 1-529) (natural protein)	3

Biological target: the molecule itself
Experiment: as above

Molecule	stoichiometry N
human HSF1 M161I, expressed in hsf1-/- mouse embryonic fibroblasts (natural protein, UniProt Q00613 1-529, looked up, human heat shock transcription factor 1 (HSF1) with M161I in LZ1-3; also called M161I mutant; source: hsf1-/- MEFs, transfected, in protein extract) MDLPVGPGAAGPSNVPAFLTKLWTLVSDPDTDALICWSPSGNSFHVFDQGQFAKEVLPKYFKHNNMASFVRQLNMYGFRKVVHIEQGGLVKPERDDTEFQHPCFLRGQEQLLENIKRKVTSVSTLKSEDIKIRQDSVTKLLTDVQLMKGKQECMDSKLLAIKHENEALWREVASLRQKHAQQQKVVNKLIQFLISLVQSNRILGVKRKIPLMLNDSGSAHSMPKYSRQFSLEHVHGSGPYSAPSPAYSSSSLYAPDAVASSGPIISDITELAPASPMASPGGSIDERPLSSSPLVRVKEEPPSPPQSPRVEEASPGRPSSVDTLLSPTALIDSILRESEPAPASVTALTDARGHTDTEGRPPSPPPTSTPEKCLSVACLDKNELSDHLDAMDSNLDNLQTMLSSHGFSVDTSALLDLFSPSVTVPDMSLPDLDSSLASIQELLSPQEPPRPPEAENSSPDSGKQLVHYTAQPLFLLDPGSVDTGSNDLPVLFELGEGSYFSEGDGFAEDPTISLLTGSEPPKAKDPTVS	3
human HSF1 L402P, expressed in hsf1-/- mouse embryonic fibroblasts (natural protein, UniProt Q00613 1-529, looked up, human heat shock transcription factor 1 (HSF1) with L402P in LZ4; also called L402P mutant; source: hsf1-/- MEFs, transfected, in protein extract) MDLPVGPGAAGPSNVPAFLTKLWTLVSDPDTDALICWSPSGNSFHVFDQGQFAKEVLPKYFKHNNMASFVRQLNMYGFRKVVHIEQGGLVKPERDDTEFQHPCFLRGQEQLLENIKRKVTSVSTLKSEDIKIRQDSVTKLLTDVQLMKGKQECMDSKLLAMKHENEALWREVASLRQKHAQQQKVVNKLIQFLISLVQSNRILGVKRKIPLMLNDSGSAHSMPKYSRQFSLEHVHGSGPYSAPSPAYSSSSLYAPDAVASSGPIISDITELAPASPMASPGGSIDERPLSSSPLVRVKEEPPSPPQSPRVEEASPGRPSSVDTLLSPTALIDSILRESEPAPASVTALTDARGHTDTEGRPPSPPPTSTPEKCLSVACLDKNELSDHLDAMDSNLDNLQTMPSSHGFSVDTSALLDLFSPSVTVPDMSLPDLDSSLASIQELLSPQEPPRPPEAENSSPDSGKQLVHYTAQPLFLLDPGSVDTGSNDLPVLFELGEGSYFSEGDGFAEDPTISLLTGSEPPKAKDPTVS	3
human HSF1 L189P, expressed in hsf1-/- mouse embryonic fibroblasts (natural protein, UniProt Q00613 1-529, looked up, human heat shock transcription factor 1 (HSF1) with L189P in LZ3; also called L189P HSF1 mutant; source: hsf1-/- MEFs, transfected, in protein extract) MDLPVGPGAAGPSNVPAFLTKLWTLVSDPDTDALICWSPSGNSFHVFDQGQFAKEVLPKYFKHNNMASFVRQLNMYGFRKVVHIEQGGLVKPERDDTEFQHPCFLRGQEQLLENIKRKVTSVSTLKSEDIKIRQDSVTKLLTDVQLMKGKQECMDSKLLAMKHENEALWREVASLRQKHAQQQKVVNKPIQFLISLVQSNRILGVKRKIPLMLNDSGSAHSMPKYSRQFSLEHVHGSGPYSAPSPAYSSSSLYAPDAVASSGPIISDITELAPASPMASPGGSIDERPLSSSPLVRVKEEPPSPPQSPRVEEASPGRPSSVDTLLSPTALIDSILRESEPAPASVTALTDARGHTDTEGRPPSPPPTSTPEKCLSVACLDKNELSDHLDAMDSNLDNLQTMLSSHGFSVDTSALLDLFSPSVTVPDMSLPDLDSSLASIQELLSPQEPPRPPEAENSSPDSGKQLVHYTAQPLFLLDPGSVDTGSNDLPVLFELGEGSYFSEGDGFAEDPTISLLTGSEPPKAKDPTVS	3
human HSF1 K178E, expressed in hsf1-/- mouse embryonic fibroblasts (natural protein, UniProt Q00613 1-529, looked up, human heat shock transcription factor 1 (HSF1) with K178E between LZ1/2 and LZ3; also called K178E mutant; source: hsf1-/- MEFs, transfected, in protein extract) MDLPVGPGAAGPSNVPAFLTKLWTLVSDPDTDALICWSPSGNSFHVFDQGQFAKEVLPKYFKHNNMASFVRQLNMYGFRKVVHIEQGGLVKPERDDTEFQHPCFLRGQEQLLENIKRKVTSVSTLKSEDIKIRQDSVTKLLTDVQLMKGKQECMDSKLLAMKHENEALWREVASLRQEHAQQQKVVNKLIQFLISLVQSNRILGVKRKIPLMLNDSGSAHSMPKYSRQFSLEHVHGSGPYSAPSPAYSSSSLYAPDAVASSGPIISDITELAPASPMASPGGSIDERPLSSSPLVRVKEEPPSPPQSPRVEEASPGRPSSVDTLLSPTALIDSILRESEPAPASVTALTDARGHTDTEGRPPSPPPTSTPEKCLSVACLDKNELSDHLDAMDSNLDNLQTMLSSHGFSVDTSALLDLFSPSVTVPDMSLPDLDSSLASIQELLSPQEPPRPPEAENSSPDSGKQLVHYTAQPLFLLDPGSVDTGSNDLPVLFELGEGSYFSEGDGFAEDPTISLLTGSEPPKAKDPTVS	3
human HSF1 H179Y, expressed in hsf1-/- mouse embryonic fibroblasts (natural protein, UniProt Q00613 1-529, looked up, human heat shock transcription factor 1 (HSF1) with H179Y between LZ1/2 and LZ3; also called H179Y mutant; source: hsf1-/- MEFs, transfected, in protein extract) MDLPVGPGAAGPSNVPAFLTKLWTLVSDPDTDALICWSPSGNSFHVFDQGQFAKEVLPKYFKHNNMASFVRQLNMYGFRKVVHIEQGGLVKPERDDTEFQHPCFLRGQEQLLENIKRKVTSVSTLKSEDIKIRQDSVTKLLTDVQLMKGKQECMDSKLLAMKHENEALWREVASLRQKYAQQQKVVNKLIQFLISLVQSNRILGVKRKIPLMLNDSGSAHSMPKYSRQFSLEHVHGSGPYSAPSPAYSSSSLYAPDAVASSGPIISDITELAPASPMASPGGSIDERPLSSSPLVRVKEEPPSPPQSPRVEEASPGRPSSVDTLLSPTALIDSILRESEPAPASVTALTDARGHTDTEGRPPSPPPTSTPEKCLSVACLDKNELSDHLDAMDSNLDNLQTMLSSHGFSVDTSALLDLFSPSVTVPDMSLPDLDSSLASIQELLSPQEPPRPPEAENSSPDSGKQLVHYTAQPLFLLDPGSVDTGSNDLPVLFELGEGSYFSEGDGFAEDPTISLLTGSEPPKAKDPTVS	3

Biological target: the molecule itself
Experiment: cross-linking; EGS cross-linking of total protein extracts of yeast PS145 grown on galactose medium; SDS-PAGE and immunoblot with an HSF1-specific antibody

Molecule	stoichiometry N
human HSF1 M161I, expressed in yeast (natural protein, UniProt Q00613 1-529, looked up, human heat shock transcription factor 1 (HSF1) with M161I in LZ1-3; Found by random mutagenesis in E. coli XL-1 Red; also called M161I mutant; source: S. cerevisiae PS145, mutant of plasmid pRS423GPD-hHSF1, in total protein extract) MDLPVGPGAAGPSNVPAFLTKLWTLVSDPDTDALICWSPSGNSFHVFDQGQFAKEVLPKYFKHNNMASFVRQLNMYGFRKVVHIEQGGLVKPERDDTEFQHPCFLRGQEQLLENIKRKVTSVSTLKSEDIKIRQDSVTKLLTDVQLMKGKQECMDSKLLAIKHENEALWREVASLRQKHAQQQKVVNKLIQFLISLVQSNRILGVKRKIPLMLNDSGSAHSMPKYSRQFSLEHVHGSGPYSAPSPAYSSSSLYAPDAVASSGPIISDITELAPASPMASPGGSIDERPLSSSPLVRVKEEPPSPPQSPRVEEASPGRPSSVDTLLSPTALIDSILRESEPAPASVTALTDARGHTDTEGRPPSPPPTSTPEKCLSVACLDKNELSDHLDAMDSNLDNLQTMLSSHGFSVDTSALLDLFSPSVTVPDMSLPDLDSSLASIQELLSPQEPPRPPEAENSSPDSGKQLVHYTAQPLFLLDPGSVDTGSNDLPVLFELGEGSYFSEGDGFAEDPTISLLTGSEPPKAKDPTVS	3
human HSF1 K178E, expressed in yeast (natural protein, UniProt Q00613 1-529, looked up, human heat shock transcription factor 1 (HSF1) with K178E between LZ1/2 and LZ3; Found by random mutagenesis in E. coli XL-1 Red; also called K178E mutant; source: S. cerevisiae PS145, mutant of plasmid pRS423GPD-hHSF1, in total protein extract) MDLPVGPGAAGPSNVPAFLTKLWTLVSDPDTDALICWSPSGNSFHVFDQGQFAKEVLPKYFKHNNMASFVRQLNMYGFRKVVHIEQGGLVKPERDDTEFQHPCFLRGQEQLLENIKRKVTSVSTLKSEDIKIRQDSVTKLLTDVQLMKGKQECMDSKLLAMKHENEALWREVASLRQEHAQQQKVVNKLIQFLISLVQSNRILGVKRKIPLMLNDSGSAHSMPKYSRQFSLEHVHGSGPYSAPSPAYSSSSLYAPDAVASSGPIISDITELAPASPMASPGGSIDERPLSSSPLVRVKEEPPSPPQSPRVEEASPGRPSSVDTLLSPTALIDSILRESEPAPASVTALTDARGHTDTEGRPPSPPPTSTPEKCLSVACLDKNELSDHLDAMDSNLDNLQTMLSSHGFSVDTSALLDLFSPSVTVPDMSLPDLDSSLASIQELLSPQEPPRPPEAENSSPDSGKQLVHYTAQPLFLLDPGSVDTGSNDLPVLFELGEGSYFSEGDGFAEDPTISLLTGSEPPKAKDPTVS	3
human HSF1 H179Y, expressed in yeast (natural protein, UniProt Q00613 1-529, looked up, human heat shock transcription factor 1 (HSF1) with H179Y between LZ1/2 and LZ3; Found by random mutagenesis in E. coli XL-1 Red; also called H179Y mutant; source: S. cerevisiae PS145, mutant of plasmid pRS423GPD-hHSF1, in total protein extract) MDLPVGPGAAGPSNVPAFLTKLWTLVSDPDTDALICWSPSGNSFHVFDQGQFAKEVLPKYFKHNNMASFVRQLNMYGFRKVVHIEQGGLVKPERDDTEFQHPCFLRGQEQLLENIKRKVTSVSTLKSEDIKIRQDSVTKLLTDVQLMKGKQECMDSKLLAMKHENEALWREVASLRQKYAQQQKVVNKLIQFLISLVQSNRILGVKRKIPLMLNDSGSAHSMPKYSRQFSLEHVHGSGPYSAPSPAYSSSSLYAPDAVASSGPIISDITELAPASPMASPGGSIDERPLSSSPLVRVKEEPPSPPQSPRVEEASPGRPSSVDTLLSPTALIDSILRESEPAPASVTALTDARGHTDTEGRPPSPPPTSTPEKCLSVACLDKNELSDHLDAMDSNLDNLQTMLSSHGFSVDTSALLDLFSPSVTVPDMSLPDLDSSLASIQELLSPQEPPRPPEAENSSPDSGKQLVHYTAQPLFLLDPGSVDTGSNDLPVLFELGEGSYFSEGDGFAEDPTISLLTGSEPPKAKDPTVS	3
human HSF1 L189P, expressed in yeast (natural protein, UniProt Q00613 1-529, looked up, human heat shock transcription factor 1 (HSF1) with L189P in LZ3; Found by random mutagenesis in E. coli XL-1 Red; also called L189P HSF1 mutant; source: S. cerevisiae PS145, mutant of plasmid pRS423GPD-hHSF1, in total protein extract) MDLPVGPGAAGPSNVPAFLTKLWTLVSDPDTDALICWSPSGNSFHVFDQGQFAKEVLPKYFKHNNMASFVRQLNMYGFRKVVHIEQGGLVKPERDDTEFQHPCFLRGQEQLLENIKRKVTSVSTLKSEDIKIRQDSVTKLLTDVQLMKGKQECMDSKLLAMKHENEALWREVASLRQKHAQQQKVVNKPIQFLISLVQSNRILGVKRKIPLMLNDSGSAHSMPKYSRQFSLEHVHGSGPYSAPSPAYSSSSLYAPDAVASSGPIISDITELAPASPMASPGGSIDERPLSSSPLVRVKEEPPSPPQSPRVEEASPGRPSSVDTLLSPTALIDSILRESEPAPASVTALTDARGHTDTEGRPPSPPPTSTPEKCLSVACLDKNELSDHLDAMDSNLDNLQTMLSSHGFSVDTSALLDLFSPSVTVPDMSLPDLDSSLASIQELLSPQEPPRPPEAENSSPDSGKQLVHYTAQPLFLLDPGSVDTGSNDLPVLFELGEGSYFSEGDGFAEDPTISLLTGSEPPKAKDPTVS	3
human HSF1 L402P, expressed in yeast (natural protein, UniProt Q00613 1-529, looked up, human heat shock transcription factor 1 (HSF1) with L402P in LZ4; Found by random mutagenesis in E. coli XL-1 Red; also called L402P mutant; source: S. cerevisiae PS145, mutant of plasmid pRS423GPD-hHSF1, in total protein extract) MDLPVGPGAAGPSNVPAFLTKLWTLVSDPDTDALICWSPSGNSFHVFDQGQFAKEVLPKYFKHNNMASFVRQLNMYGFRKVVHIEQGGLVKPERDDTEFQHPCFLRGQEQLLENIKRKVTSVSTLKSEDIKIRQDSVTKLLTDVQLMKGKQECMDSKLLAMKHENEALWREVASLRQKHAQQQKVVNKLIQFLISLVQSNRILGVKRKIPLMLNDSGSAHSMPKYSRQFSLEHVHGSGPYSAPSPAYSSSSLYAPDAVASSGPIISDITELAPASPMASPGGSIDERPLSSSPLVRVKEEPPSPPQSPRVEEASPGRPSSVDTLLSPTALIDSILRESEPAPASVTALTDARGHTDTEGRPPSPPPTSTPEKCLSVACLDKNELSDHLDAMDSNLDNLQTMPSSHGFSVDTSALLDLFSPSVTVPDMSLPDLDSSLASIQELLSPQEPPRPPEAENSSPDSGKQLVHYTAQPLFLLDPGSVDTGSNDLPVLFELGEGSYFSEGDGFAEDPTISLLTGSEPPKAKDPTVS	3

From paper PMC3737171, “Genetic Selection for Constitutively Trimerized Human HSF1 Mutants Identifies a Role for Coiled-Coil Motifs in DNA Binding” (G3: Genes|Genomes|Genetics, 2013)
